Measurements reported in US20240109955A1.

Assays:
Experiment in all cases: cell-based or functional assay
[1] = biological target: SARS-CoV-2 spike (S) protein of Omicron sublineage BA.2.75 (G446S) (SARS-CoV-2) (UniProt P0DTC2)
[2] = biological target: SARS-CoV-2 spike (S) protein of Omicron sublineage BJ.1 (R346T, V445P, G446S) (SARS-CoV-2) (UniProt P0DTC2)
[3] = biological target: SARS-CoV-2 spike (S) protein of Omicron sublineage BQ.1.1 (R346T, K444T, F486V) (SARS-CoV-2) (UniProt P0DTC2)
[4] = biological target: SARS-CoV-2 spike protein, Delta variant (B.1.617.2) (SARS-CoV-2)
[5] = biological target: SARS-CoV-2 spike (S) protein, Omicron variant BA.2.12.1 (SARS-CoV-2) (UniProt P0DTC2)
[6] = biological target: SARS-CoV-2 spike (S) protein, Omicron variant BA.1 (SARS-CoV-2) (UniProt P0DTC2)
[7] = biological target: SARS-CoV-2 spike (S) protein, Omicron variant BA.2 (SARS-CoV-2) (UniProt P0DTC2)
[8] = biological target: SARS-CoV-2 spike protein, C.1.2 variant (SARS-CoV-2)
[9] = biological target: SARS-CoV-2 spike protein, Mu variant (B.1.621) (SARS-CoV-2)
[10] = biological target: SARS-CoV-2 spike protein, Gamma variant (P.1) (SARS-CoV-2)
[11] = biological target: SARS-CoV-2 spike protein, Beta variant 1 (B.1.351 v1) (SARS-CoV-2)
[12] = biological target: SARS-CoV-2 spike protein, Alpha variant (B.1.1.7) (SARS-CoV-2)
[13] = biological target: SARS-CoV-2 Omicron BA.4.6 spike protein (R346T, F486V) (SARS-CoV-2) (UniProt P0DTC2)
[14] = biological target: SARS-CoV-2 spike protein, Delta variant (AY.1) (SARS-CoV-2)

Sequence of MX412 (A23-58H/B1-182L × A19-61) (bispecific antibody) (chain): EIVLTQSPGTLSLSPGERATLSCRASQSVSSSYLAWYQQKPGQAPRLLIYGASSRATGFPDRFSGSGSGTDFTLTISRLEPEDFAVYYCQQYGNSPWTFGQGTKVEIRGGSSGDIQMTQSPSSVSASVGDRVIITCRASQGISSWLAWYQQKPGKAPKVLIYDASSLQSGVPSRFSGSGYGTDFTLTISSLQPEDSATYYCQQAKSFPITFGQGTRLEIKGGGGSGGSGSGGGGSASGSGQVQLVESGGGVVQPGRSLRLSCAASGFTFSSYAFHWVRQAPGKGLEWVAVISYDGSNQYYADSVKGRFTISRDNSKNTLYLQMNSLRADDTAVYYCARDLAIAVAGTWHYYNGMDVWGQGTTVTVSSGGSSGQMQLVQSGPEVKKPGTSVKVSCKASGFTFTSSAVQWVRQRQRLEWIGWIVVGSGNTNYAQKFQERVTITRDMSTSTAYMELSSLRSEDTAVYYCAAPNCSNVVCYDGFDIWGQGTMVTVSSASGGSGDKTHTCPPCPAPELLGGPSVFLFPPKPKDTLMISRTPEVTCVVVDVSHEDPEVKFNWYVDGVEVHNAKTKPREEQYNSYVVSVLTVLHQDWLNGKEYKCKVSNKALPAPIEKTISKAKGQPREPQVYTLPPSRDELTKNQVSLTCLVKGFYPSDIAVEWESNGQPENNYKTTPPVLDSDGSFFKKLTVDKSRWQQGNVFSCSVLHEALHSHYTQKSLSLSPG
Sequence of MX180 (B1-182 × A19-46) (bispecific antibody) (chain): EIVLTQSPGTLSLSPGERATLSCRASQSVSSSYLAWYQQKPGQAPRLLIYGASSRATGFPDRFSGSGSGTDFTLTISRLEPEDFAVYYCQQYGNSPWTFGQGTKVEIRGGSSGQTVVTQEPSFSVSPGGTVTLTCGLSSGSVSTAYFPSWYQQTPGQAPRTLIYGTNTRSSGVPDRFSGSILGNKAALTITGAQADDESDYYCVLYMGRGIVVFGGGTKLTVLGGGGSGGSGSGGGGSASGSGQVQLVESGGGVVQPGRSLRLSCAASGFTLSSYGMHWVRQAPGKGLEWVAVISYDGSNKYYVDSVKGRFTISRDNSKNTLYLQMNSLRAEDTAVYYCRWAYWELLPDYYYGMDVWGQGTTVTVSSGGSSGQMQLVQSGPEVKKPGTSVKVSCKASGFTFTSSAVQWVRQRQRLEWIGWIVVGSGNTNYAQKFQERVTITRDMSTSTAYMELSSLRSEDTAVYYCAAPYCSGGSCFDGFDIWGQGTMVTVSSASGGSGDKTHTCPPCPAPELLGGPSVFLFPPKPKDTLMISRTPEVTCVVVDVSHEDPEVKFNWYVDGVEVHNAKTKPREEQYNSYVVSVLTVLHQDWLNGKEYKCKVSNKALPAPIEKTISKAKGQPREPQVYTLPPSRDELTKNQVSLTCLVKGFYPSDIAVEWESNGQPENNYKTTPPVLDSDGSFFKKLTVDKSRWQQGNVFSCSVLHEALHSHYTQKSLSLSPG
Sequence of A19-46.1 antibody (VH): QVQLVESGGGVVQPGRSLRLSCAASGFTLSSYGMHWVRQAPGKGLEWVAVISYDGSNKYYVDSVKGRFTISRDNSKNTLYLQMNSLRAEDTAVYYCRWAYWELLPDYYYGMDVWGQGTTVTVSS
Sequence of A19-46.1 antibody (VL): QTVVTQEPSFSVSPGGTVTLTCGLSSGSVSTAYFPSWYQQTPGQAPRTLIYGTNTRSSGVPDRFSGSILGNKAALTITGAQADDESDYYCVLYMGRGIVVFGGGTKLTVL
Sequence of MX183 (A19-61 × B1-182) (bispecific antibody) (chain): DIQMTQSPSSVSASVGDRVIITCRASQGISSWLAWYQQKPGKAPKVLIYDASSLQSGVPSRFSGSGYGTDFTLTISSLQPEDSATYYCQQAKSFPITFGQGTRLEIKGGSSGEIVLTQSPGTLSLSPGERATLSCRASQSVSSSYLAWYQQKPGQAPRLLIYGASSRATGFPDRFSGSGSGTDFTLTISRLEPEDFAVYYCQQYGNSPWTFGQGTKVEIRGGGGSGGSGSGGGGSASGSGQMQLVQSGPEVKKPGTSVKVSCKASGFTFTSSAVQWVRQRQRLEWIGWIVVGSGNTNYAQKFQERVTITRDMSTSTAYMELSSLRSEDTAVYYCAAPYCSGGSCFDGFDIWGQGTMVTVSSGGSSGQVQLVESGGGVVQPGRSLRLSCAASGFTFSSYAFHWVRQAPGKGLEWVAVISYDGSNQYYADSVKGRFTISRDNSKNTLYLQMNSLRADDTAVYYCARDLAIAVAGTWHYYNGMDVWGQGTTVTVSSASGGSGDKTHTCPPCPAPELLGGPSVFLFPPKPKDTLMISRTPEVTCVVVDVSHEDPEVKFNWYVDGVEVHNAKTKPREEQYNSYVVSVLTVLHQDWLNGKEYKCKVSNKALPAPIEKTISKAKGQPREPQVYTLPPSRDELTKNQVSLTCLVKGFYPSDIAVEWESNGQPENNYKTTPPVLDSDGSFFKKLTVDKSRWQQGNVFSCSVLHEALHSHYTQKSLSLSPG
Sequence of MX179 (A19-46 × B1-182) (bispecific antibody) (chain): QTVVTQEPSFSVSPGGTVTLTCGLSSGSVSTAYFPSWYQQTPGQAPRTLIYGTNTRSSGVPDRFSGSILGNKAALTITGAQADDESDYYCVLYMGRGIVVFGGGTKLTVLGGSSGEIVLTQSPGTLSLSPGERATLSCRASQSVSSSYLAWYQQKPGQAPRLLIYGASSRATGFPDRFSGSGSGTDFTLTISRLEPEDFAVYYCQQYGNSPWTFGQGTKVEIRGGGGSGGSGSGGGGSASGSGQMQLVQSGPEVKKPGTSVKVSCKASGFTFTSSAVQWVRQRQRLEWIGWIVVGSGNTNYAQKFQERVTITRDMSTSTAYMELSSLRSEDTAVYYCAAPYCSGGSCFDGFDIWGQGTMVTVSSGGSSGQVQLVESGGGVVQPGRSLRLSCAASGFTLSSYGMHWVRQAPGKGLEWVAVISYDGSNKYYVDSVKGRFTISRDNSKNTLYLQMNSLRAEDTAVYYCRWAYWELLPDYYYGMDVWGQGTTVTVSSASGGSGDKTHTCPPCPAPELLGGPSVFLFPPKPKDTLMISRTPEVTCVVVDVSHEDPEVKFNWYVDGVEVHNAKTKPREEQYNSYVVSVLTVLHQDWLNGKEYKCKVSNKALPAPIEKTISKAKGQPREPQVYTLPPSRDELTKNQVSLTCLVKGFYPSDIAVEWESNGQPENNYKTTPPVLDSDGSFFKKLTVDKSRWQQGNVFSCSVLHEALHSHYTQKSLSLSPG

Substance	IC50, pseudovirus neutralization [1]	IC80, pseudovirus neutralization [1]	IC50, pseudovirus neutralization [4]	IC80, pseudovirus neutralization [4]	IC50, pseudovirus neutralization [5]	IC80, pseudovirus neutralization [5]	IC50, pseudovirus neutralization [6]	IC80, pseudovirus neutralization [6]	IC50, pseudovirus neutralization [7]	IC80, pseudovirus neutralization [7]	IC50, pseudovirus neutralization [8]	IC80, pseudovirus neutralization [8]	IC50, pseudovirus neutralization [9]	IC80, pseudovirus neutralization [9]	IC50, pseudovirus neutralization [10]	IC80, pseudovirus neutralization [10]	IC50, pseudovirus neutralization [11]	IC80, pseudovirus neutralization [11]	IC50, pseudovirus neutralization [12]	IC80, pseudovirus neutralization [12]	further results
A19-46.1 antibody	148 nM	352 nM	–	–	–	–	–	–	–	–	–	–	–	–	–	–	–	–	–	–	IC50, pseudovirus neutralization [2]: > 10000 nM; IC80, pseudovirus neutralization [2]: > 10000 nM; IC50, pseudovirus neutralization [3]: > 10000 nM; IC80, pseudovirus neutralization [3]: > 10000 nM
A19-61.1 antibody	> 10000 nM	> 10000 nM	–	–	–	–	–	–	–	–	–	–	–	–	–	–	–	–	–	–	IC50, pseudovirus neutralization [2]: > 10000 nM; IC80, pseudovirus neutralization [2]: > 10000 nM; IC50, pseudovirus neutralization [3]: > 10000 nM; IC80, pseudovirus neutralization [3]: > 10000 nM
A23-58 mAb (antibody)	–	–	0.0133 nM	0.0358 nM	0.647 nM	4.96 nM	0.853 nM	4.24 nM	1.68 nM	5.69 nM	0.0287 nM	0.0656 nM	0.124 nM	0.26 nM	0.0097 nM	0.0437 nM	0.123 nM	0.339 nM	0.0329 nM	0.104 nM	–
A23-58H/B1-182L hybrid antibody	5 nM	35 nM	–	–	–	–	–	–	–	–	–	–	–	–	–	–	–	–	–	–	IC50, pseudovirus neutralization [13]: > 10000 nM; IC80, pseudovirus neutralization [13]: > 10000 nM; IC50, pseudovirus neutralization [2]: 20 nM; IC80, pseudovirus neutralization [2]: 102 nM; IC50, pseudovirus neutralization [3]: > 10000 nM; IC80, pseudovirus neutralization [3]: > 10000 nM
A23-58H/B1-182L mAb (antibody)	–	–	0.0104 nM	0.0205 nM	0.83 nM	3.27 nM	0.364 nM	1.39 nM	0.544 nM	2.48 nM	0.0207 nM	0.0348 nM	0.0402 nM	0.108 nM	0.0116 nM	0.0237 nM	0.0305 nM	0.0966 nM	0.0174 nM	0.0376 nM	–
MX179 (A19-46 × B1-182) (bispecific antibody)	–	–	–	–	0.167 nM	0.929 nM	0.0068 nM	0.0193 nM	0.0137 nM	0.0389 nM	–	–	–	–	–	–	–	–	–	–	–
MX180 (B1-182 × A19-46) (bispecific antibody)	–	–	–	–	0.584 nM	2.82 nM	0.0187 nM	0.0652 nM	0.041 nM	0.103 nM	–	–	–	–	–	–	–	–	–	–	–
MX183 (A19-61 × B1-182) (bispecific antibody)	–	–	0.23 nM	0.948 nM	–	–	> 66.7 nM	> 66.7 nM	–	–	–	–	–	–	0.43 nM	2.27 nM	1.02 nM	1.65 nM	0.803 nM	5.66 nM	IC50, pseudovirus neutralization [14]: 0.542 nM; IC80, pseudovirus neutralization [14]: 1.04 nM
MX409 (A23-58H/B1-182L Tetravalent) (antibody)	–	–	0.00313 nM	0.00882 nM	8.96 nM	52.7 nM	2.03 nM	> 66.7 nM	4.9 nM	> 66.7 nM	0.005 nM	0.0099 nM	0.0046 nM	0.0124 nM	0.00182 nM	0.00565 nM	0.0073 nM	0.0175 nM	0.0139 nM	0.0286 nM	–
MX412 (A23-58H/B1-182L × A19-61) (bispecific antibody)	–	–	0.0279 nM	0.0625 nM	0.0615 nM	0.178 nM	8.96 nM	31.8 nM	0.0304 nM	0.0803 nM	0.014 nM	0.0528 nM	0.583 nM	1.78 nM	0.042 nM	0.0885 nM	0.0365 nM	0.084 nM	0.058 nM	0.143 nM	–
